Measurements from publication PMC4390766.
Read-outs that look alike come from different tables or passages of the source.

Key:
β-catenin [1] = target: β-catenin (UniProt P35222); conditions: cited from earlier work
β-catenin [2] = target: β-catenin (UniProt P35222); conditions: cited from earlier work; remark: listed apart in the source
[3] = target: HMP-2_(54arm) (C. elegans) (UniProt O44326); experiment: ITC
[4] = target: HMP-2_(54end) (C. elegans) (UniProt O44326); experiment: ITC

Chain of UniProt P35222 (P35222 2-781): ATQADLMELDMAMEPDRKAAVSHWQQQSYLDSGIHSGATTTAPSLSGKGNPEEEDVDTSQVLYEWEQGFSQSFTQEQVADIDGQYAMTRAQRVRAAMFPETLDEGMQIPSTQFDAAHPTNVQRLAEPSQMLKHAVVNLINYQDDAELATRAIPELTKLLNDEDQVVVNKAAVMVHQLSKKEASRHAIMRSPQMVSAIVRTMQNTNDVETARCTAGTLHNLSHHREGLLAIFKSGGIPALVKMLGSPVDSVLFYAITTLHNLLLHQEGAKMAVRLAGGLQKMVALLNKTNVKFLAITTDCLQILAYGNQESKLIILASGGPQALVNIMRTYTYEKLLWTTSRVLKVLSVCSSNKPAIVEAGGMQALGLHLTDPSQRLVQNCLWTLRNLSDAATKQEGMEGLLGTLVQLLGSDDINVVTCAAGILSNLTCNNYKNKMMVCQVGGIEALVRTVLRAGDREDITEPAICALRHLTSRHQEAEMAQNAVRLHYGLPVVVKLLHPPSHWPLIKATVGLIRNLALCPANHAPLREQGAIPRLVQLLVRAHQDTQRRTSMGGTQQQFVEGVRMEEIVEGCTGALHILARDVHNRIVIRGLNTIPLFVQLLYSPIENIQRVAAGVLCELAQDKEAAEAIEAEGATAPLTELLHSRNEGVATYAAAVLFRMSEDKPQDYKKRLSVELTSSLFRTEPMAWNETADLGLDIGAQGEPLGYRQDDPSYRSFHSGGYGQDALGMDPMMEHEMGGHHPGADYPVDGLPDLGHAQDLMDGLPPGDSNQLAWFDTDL

Row | Substance | Kd (β-catenin [1]) [nM] | Kd (β-catenin [2]) [nM] | Kd [3] [nM] | Kd [4] [nM]
1 | E-cadherin cytoplasmic domain (from UniProt P12830) | 0.052 | 46 |  | 
2 | pHMR-1_(cyto80) (domain or fragment) |  |  | 3.1 | 23
3 | pHMR-1(T1215A)_(cyto80) (domain or fragment) |  |  | 26 | 
4 | HMR-1_(cyto80) (domain or fragment) |  |  | 380 | 
5 | HMR-1(T1215A)_(cyto80), non-phosphorylated (domain or fragment) |  |  | 610 | 
